This assay deals with full-length Measles virus hemagglutinin (H) on transfected HEK293T cells (Measles virus, strain IC323, UniProt Q786F2). Briefly: flow cytometry on cells. On the technique in general: Flow cytometry measures light scatter and fluorescence of single cells or particles in a stream.
full-length Measles virus hemagglutinin (H) on transfected HEK293T cells, sequence (Q786F2 whole entry): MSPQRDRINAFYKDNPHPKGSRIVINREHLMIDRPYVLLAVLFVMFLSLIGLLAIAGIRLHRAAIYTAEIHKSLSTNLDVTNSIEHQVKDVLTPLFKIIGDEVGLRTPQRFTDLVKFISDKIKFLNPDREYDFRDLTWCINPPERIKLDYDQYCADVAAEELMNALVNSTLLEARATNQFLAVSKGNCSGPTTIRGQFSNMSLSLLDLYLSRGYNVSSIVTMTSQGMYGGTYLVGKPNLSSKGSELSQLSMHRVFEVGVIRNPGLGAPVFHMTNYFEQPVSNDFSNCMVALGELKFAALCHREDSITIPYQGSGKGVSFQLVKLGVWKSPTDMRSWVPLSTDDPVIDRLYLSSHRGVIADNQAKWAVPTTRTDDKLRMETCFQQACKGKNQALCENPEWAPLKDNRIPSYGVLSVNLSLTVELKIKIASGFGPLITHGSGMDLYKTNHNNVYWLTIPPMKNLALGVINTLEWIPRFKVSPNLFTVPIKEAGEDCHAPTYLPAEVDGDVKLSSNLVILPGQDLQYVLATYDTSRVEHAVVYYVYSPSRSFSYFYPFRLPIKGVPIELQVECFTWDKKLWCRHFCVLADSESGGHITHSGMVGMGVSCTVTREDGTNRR

B1: human anti-MeV H monoclonal antibody 1C02 (IgG1) (antibody, V domains shown)
VH: EVQLLESGAEVKKPGSSVKVSCKASGGTFSSYGISWVRQAPGQGLEWMGGIIPIFGTANYAQKFRGRVTITADKSTSTAYMELSSLRSEDTAVYYCARERITVAGINYYYGMDVWGQGTTVTVSS
VL: RPVLTQPPSVSGAPGQRVTISCTGSSSNIGAGYDVHWYQQLPGTAPKLLIYGDSNRPSGVPDRFSGSKSGTSASLAITGLQAEDEADYYCQSYDSSLSGVVFGGGTKLTVL
For B1, the binding result is “binds”.

B2: human anti-MeV H monoclonal antibody 4D08 (IgG1) (antibody, V domains shown)
VH: QMQLVQSGAEVKKPGASVKVSCKASGYTFTSYAMHWVRQAPGQRLEWMGWINAGNGKTEYSQRFQGRVTITRDTSASTVYMELNSLRSEDTAVYFCARDAYDFWSGYGNWGSNYYYFYMDAWGKGTTVTVSS
VL: EIVMTQSPPSLSASVGDRVTITCRASQSINYYLNWYQQKPGKAPKLLIYAASGLQSGVPSRFSGSGSGTDFTLTISSLQPEDLATYYCQQTYSTPVTFGQGTKLEII
As to B2, the binding result is listed as “binds”.

Values taken from publication PMC13374049 (Cell host & microbe, 2026).
